Assay results published in the supplement of paper PMC10567573.

B1: MATN2 (parent)
chain: TDDSYSCHCLKGFTLNPDKKTCRR

Variants of: B1
Assay: protein stability index of a GFP-peptide fusion (GPS, HEK-293T) (PSI 1-6); higher = more stable
Details: c terminus: a fixed tail appended
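Further: lentivirally expressed fusions sorted by FACS into six bins by GFP to DsRed ratio, PSI derived from sequencing read proportions per bin multiplied by bin number.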

Variant	protein stability index
TDDSYSCHCLKGFHLNPDKKTCRR	2.36
TDDSYSCHCLKGFILNPDKKTCRR	2.02
TDDSYSCHCLKGFKLNPDKKTCRR	2.16
TDDSYSCHCLKGFLLNPDKKTCRR	2.01
TDDSYSCHCLKGFMLNPDKKTCRR	1.64
TDDSYSCHCLKGFNLNPDKKTCRR	2.68
TDDSYSCHCLKGFPLNPDKKTCRR	1.79
TDDSYSCHCLKGFQLNPDKKTCRR	1.67
TDDSYSCHCLKGFRLNPDKKTCRR	2
TDDSYSCHCLKGFSLNPDKKTCRR	2.13
TDDSYSCHCLKGFVLNPDKKTCRR	3.45
TDDSYSCHCLKGFWLNPDKKTCRR	2.69
TDDSYSCHCLKGFYLNPDKKTCRR	1.6
TDDSYSCHCLKGFTANPDKKTCRR	2.45
TDDSYSCHCLKGFTCNPDKKTCRR	2.9
TDDSYSCHCLKGFTDNPDKKTCRR	2.14
TDDSYSCHCLKGFTENPDKKTCRR	2.58
TDDSYSCHCLKGFTFNPDKKTCRR	2.86
TDDSYSCHCLKGFTGNPDKKTCRR	1.74
TDDSYSCHCLKGFTHNPDKKTCRR	1.97
TDDSYSCHCLKGFTINPDKKTCRR	2.12
TDDSYSCHCLKGFTKNPDKKTCRR	2.64
TDDSYSCHCLKGFTMNPDKKTCRR	2.38
TDDSYSCHCLKGFTNNPDKKTCRR	2.03

Variant	protein stability index
TDDSYSCHCLKGFTPNPDKKTCRR	2.42
TDDSYSCHCLKGFTQNPDKKTCRR	2.8
TDDSYSCHCLKGFTRNPDKKTCRR	2.81
TDDSYSCHCLKGFTSNPDKKTCRR	2.17
TDDSYSCHCLKGFTTNPDKKTCRR	2.02
TDDSYSCHCLKGFTVNPDKKTCRR	2.55
TDDSYSCHCLKGFTWNPDKKTCRR	2.48
TDDSYSCHCLKGFTYNPDKKTCRR	2.45
TDDSYSCHCLKGFTLAPDKKTCRR	2.68
TDDSYSCHCLKGFTLCPDKKTCRR	2.97
TDDSYSCHCLKGFTLDPDKKTCRR	2.17
TDDSYSCHCLKGFTLEPDKKTCRR	2.06
TDDSYSCHCLKGFTLFPDKKTCRR	1.8
TDDSYSCHCLKGFTLGPDKKTCRR	2.23
TDDSYSCHCLKGFTLHPDKKTCRR	2.3
TDDSYSCHCLKGFTLIPDKKTCRR	2.89
TDDSYSCHCLKGFTLKPDKKTCRR	2.33
TDDSYSCHCLKGFTLLPDKKTCRR	2.24
TDDSYSCHCLKGFTLMPDKKTCRR	2.65
TDDSYSCHCLKGFTLPPDKKTCRR	2.85
TDDSYSCHCLKGFTLQPDKKTCRR	1.56
TDDSYSCHCLKGFTLRPDKKTCRR	2.75
TDDSYSCHCLKGFTLSPDKKTCRR	2.24
TDDSYSCHCLKGFTLTPDKKTCRR	1.91

Variant	protein stability index
TDDSYSCHCLKGFTLVPDKKTCRR	2.56
TDDSYSCHCLKGFTLWPDKKTCRR	1.6
TDDSYSCHCLKGFTLYPDKKTCRR	2.4
TDDSYSCHCLKGFTLNADKKTCRR	2.25
TDDSYSCHCLKGFTLNCDKKTCRR	3.48
TDDSYSCHCLKGFTLNDDKKTCRR	2.65
TDDSYSCHCLKGFTLNEDKKTCRR	2.77
TDDSYSCHCLKGFTLNFDKKTCRR	2.3
TDDSYSCHCLKGFTLNGDKKTCRR	2.57
TDDSYSCHCLKGFTLNHDKKTCRR	2.42
TDDSYSCHCLKGFTLNIDKKTCRR	2.01
TDDSYSCHCLKGFTLNKDKKTCRR	2.63
TDDSYSCHCLKGFTLNLDKKTCRR	2.02
TDDSYSCHCLKGFTLNMDKKTCRR	2.71
TDDSYSCHCLKGFTLNNDKKTCRR	2.28
TDDSYSCHCLKGFTLNQDKKTCRR	2.14
TDDSYSCHCLKGFTLNRDKKTCRR	2.35
TDDSYSCHCLKGFTLNSDKKTCRR	2.11
TDDSYSCHCLKGFTLNTDKKTCRR	2.5
TDDSYSCHCLKGFTLNVDKKTCRR	2.92
TDDSYSCHCLKGFTLNWDKKTCRR	1.65
TDDSYSCHCLKGFTLNYDKKTCRR	2.26
TDDSYSCHCLKGFTLNPAKKTCRR	2.11
TDDSYSCHCLKGFTLNPCKKTCRR	2.57

Variant	protein stability index
TDDSYSCHCLKGFTLNPEKKTCRR	1.77
TDDSYSCHCLKGFTLNPFKKTCRR	2.01
TDDSYSCHCLKGFTLNPGKKTCRR	2.36
TDDSYSCHCLKGFTLNPHKKTCRR	2.83
TDDSYSCHCLKGFTLNPIKKTCRR	2.62
TDDSYSCHCLKGFTLNPKKKTCRR	2.86
TDDSYSCHCLKGFTLNPLKKTCRR	2.23
TDDSYSCHCLKGFTLNPMKKTCRR	2.48
TDDSYSCHCLKGFTLNPNKKTCRR	2.38
TDDSYSCHCLKGFTLNPPKKTCRR	2.61
TDDSYSCHCLKGFTLNPQKKTCRR	1.97
TDDSYSCHCLKGFTLNPRKKTCRR	2.65
TDDSYSCHCLKGFTLNPSKKTCRR	2.27
TDDSYSCHCLKGFTLNPTKKTCRR	2.24
TDDSYSCHCLKGFTLNPVKKTCRR	2.42
TDDSYSCHCLKGFTLNPWKKTCRR	2.17
TDDSYSCHCLKGFTLNPYKKTCRR	1.95
TDDSYSCHCLKGFTLNPDAKTCRR	2.46
TDDSYSCHCLKGFTLNPDCKTCRR	4.92
TDDSYSCHCLKGFTLNPDDKTCRR	2.37
TDDSYSCHCLKGFTLNPDEKTCRR	2.3
TDDSYSCHCLKGFTLNPDFKTCRR	1.61
